Source: patent US20210388087A1 (Chugai, published 2021)

Molecular target: T1, CD3 epsilon homodimer protein (UniProt P07766 23-126)
T1 construct: also called CD3 (CD3 epsilon)
Assay: SPR, CD3 epsilon homodimer on chip, one-arm antibody as analyte;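 also: surface plasmon resonance at 25 °C with CD3 epsilon homodimer amine-coupled to a CM4 sensor chip, antibody injected as analyte, HBS-EP+ as running buffer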

T1 sequence (P07766 23-126): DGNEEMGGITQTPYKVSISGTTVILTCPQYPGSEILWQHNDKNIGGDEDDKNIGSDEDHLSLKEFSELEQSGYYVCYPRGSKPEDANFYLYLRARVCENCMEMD

Binder	KD ratio (KD of CE115HA000/KD of altered form)
CE115HA000 Y100aK (antibody, human IgG1, kappa, L234A L235A, N297A, name in Kabat numbering, one-arm antibody) heavy: QVQLVESGGGVVQPGRSLRLSCAASGFTFSNAWMHWVRQAPGKGLEWVAQIKAKSNNYATYYAESVKGRFTISRDDSKNSLYLQMNSLKTEDTAVYYCRYVHYGAYKGVDAWGQGTTVTVSSASTKGPSVFPLAPSSKSTSGGTAALGCLVKDYFPEPVTVSWNSGALTSGVHTFPAVLQSSGLYSLSSVVTVPSSSLGTQTYICNVNHKPSNTKVDKKVEPKSCDKTHTCPPCPAPEAAGGPSVFLFPPKPKDTLMISRTPEVTCVVVDVSHEDPEVKFNWYVDGVEVHNAKTKPREEQYASTYRVVSVLTVLHQDWLNGKEYKCKVSNKALPAPIEKTISKAKGQPREPQVYTLPPSRCELTKNQVSLSCAVKGFYPSDIAVEWESNGQPENNYKTTPPVLDSDGSFFLVSKLTVDKSRWQQGNVFSCSVMHEALHNHYTQKSLSLSPDYKDDDDK EPKSSDKTHTCPPCPAPELLGGPSVFLFPPKPKDTLMISRTPEVTCVVVDVSHEDPEVKFNWYVDGVEVHNAKTKPREEQYNSTYRVVSVLTVLHQDWLNGKEYKCKVSNKALPAPIEKTISKAKGQPREPQVCTLPPSRDELTKNQVSLWCLVKGFYPSDIAVEWESNGQPENNYKTTPPVLDSDGSFFLYSKLTVDKSRWQQGNVFSCSVMHEALHNRYTQKSLSLSP light: DIVMTQSPLSLPVTPGEPASISCRSSQSLVHSNRNTYLHWYQQKPGQAPRLLIYKVSNRFSGVPDRFSGSGSGTDFTLKISRVEAEDVGVYYCGQGTQVPYTFGQGTKLEIKRTVAAPSVFIFPPSDEQLKSGTASVVCLLNNFYPREAKVQWKVDNALQSGNSQESVTEQDSKDSTYSLSSTLTLSKADYEKHKVYACEVTHQGLSSPVTKSFNRGEC	0.79
CE115HA000 Y100aQ (antibody, human IgG1, kappa, L234A L235A, N297A, name in Kabat numbering, one-arm antibody) heavy: QVQLVESGGGVVQPGRSLRLSCAASGFTFSNAWMHWVRQAPGKGLEWVAQIKAKSNNYATYYAESVKGRFTISRDDSKNSLYLQMNSLKTEDTAVYYCRYVHYGAYQGVDAWGQGTTVTVSSASTKGPSVFPLAPSSKSTSGGTAALGCLVKDYFPEPVTVSWNSGALTSGVHTFPAVLQSSGLYSLSSVVTVPSSSLGTQTYICNVNHKPSNTKVDKKVEPKSCDKTHTCPPCPAPEAAGGPSVFLFPPKPKDTLMISRTPEVTCVVVDVSHEDPEVKFNWYVDGVEVHNAKTKPREEQYASTYRVVSVLTVLHQDWLNGKEYKCKVSNKALPAPIEKTISKAKGQPREPQVYTLPPSRCELTKNQVSLSCAVKGFYPSDIAVEWESNGQPENNYKTTPPVLDSDGSFFLVSKLTVDKSRWQQGNVFSCSVMHEALHNHYTQKSLSLSPDYKDDDDK EPKSSDKTHTCPPCPAPELLGGPSVFLFPPKPKDTLMISRTPEVTCVVVDVSHEDPEVKFNWYVDGVEVHNAKTKPREEQYNSTYRVVSVLTVLHQDWLNGKEYKCKVSNKALPAPIEKTISKAKGQPREPQVCTLPPSRDELTKNQVSLWCLVKGFYPSDIAVEWESNGQPENNYKTTPPVLDSDGSFFLYSKLTVDKSRWQQGNVFSCSVMHEALHNRYTQKSLSLSP light: DIVMTQSPLSLPVTPGEPASISCRSSQSLVHSNRNTYLHWYQQKPGQAPRLLIYKVSNRFSGVPDRFSGSGSGTDFTLKISRVEAEDVGVYYCGQGTQVPYTFGQGTKLEIKRTVAAPSVFIFPPSDEQLKSGTASVVCLLNNFYPREAKVQWKVDNALQSGNSQESVTEQDSKDSTYSLSSTLTLSKADYEKHKVYACEVTHQGLSSPVTKSFNRGEC	0.51
CE115HA000 Y100aL (antibody, human IgG1, kappa, L234A L235A, N297A, name in Kabat numbering, one-arm antibody) heavy: QVQLVESGGGVVQPGRSLRLSCAASGFTFSNAWMHWVRQAPGKGLEWVAQIKAKSNNYATYYAESVKGRFTISRDDSKNSLYLQMNSLKTEDTAVYYCRYVHYGAYLGVDAWGQGTTVTVSSASTKGPSVFPLAPSSKSTSGGTAALGCLVKDYFPEPVTVSWNSGALTSGVHTFPAVLQSSGLYSLSSVVTVPSSSLGTQTYICNVNHKPSNTKVDKKVEPKSCDKTHTCPPCPAPEAAGGPSVFLFPPKPKDTLMISRTPEVTCVVVDVSHEDPEVKFNWYVDGVEVHNAKTKPREEQYASTYRVVSVLTVLHQDWLNGKEYKCKVSNKALPAPIEKTISKAKGQPREPQVYTLPPSRCELTKNQVSLSCAVKGFYPSDIAVEWESNGQPENNYKTTPPVLDSDGSFFLVSKLTVDKSRWQQGNVFSCSVMHEALHNHYTQKSLSLSPDYKDDDDK EPKSSDKTHTCPPCPAPELLGGPSVFLFPPKPKDTLMISRTPEVTCVVVDVSHEDPEVKFNWYVDGVEVHNAKTKPREEQYNSTYRVVSVLTVLHQDWLNGKEYKCKVSNKALPAPIEKTISKAKGQPREPQVCTLPPSRDELTKNQVSLWCLVKGFYPSDIAVEWESNGQPENNYKTTPPVLDSDGSFFLYSKLTVDKSRWQQGNVFSCSVMHEALHNRYTQKSLSLSP light: DIVMTQSPLSLPVTPGEPASISCRSSQSLVHSNRNTYLHWYQQKPGQAPRLLIYKVSNRFSGVPDRFSGSGSGTDFTLKISRVEAEDVGVYYCGQGTQVPYTFGQGTKLEIKRTVAAPSVFIFPPSDEQLKSGTASVVCLLNNFYPREAKVQWKVDNALQSGNSQESVTEQDSKDSTYSLSSTLTLSKADYEKHKVYACEVTHQGLSSPVTKSFNRGEC	0.57
CE115HA000 Y100aS (antibody, human IgG1, kappa, L234A L235A, N297A, name in Kabat numbering, one-arm antibody) heavy: QVQLVESGGGVVQPGRSLRLSCAASGFTFSNAWMHWVRQAPGKGLEWVAQIKAKSNNYATYYAESVKGRFTISRDDSKNSLYLQMNSLKTEDTAVYYCRYVHYGAYSGVDAWGQGTTVTVSSASTKGPSVFPLAPSSKSTSGGTAALGCLVKDYFPEPVTVSWNSGALTSGVHTFPAVLQSSGLYSLSSVVTVPSSSLGTQTYICNVNHKPSNTKVDKKVEPKSCDKTHTCPPCPAPEAAGGPSVFLFPPKPKDTLMISRTPEVTCVVVDVSHEDPEVKFNWYVDGVEVHNAKTKPREEQYASTYRVVSVLTVLHQDWLNGKEYKCKVSNKALPAPIEKTISKAKGQPREPQVYTLPPSRCELTKNQVSLSCAVKGFYPSDIAVEWESNGQPENNYKTTPPVLDSDGSFFLVSKLTVDKSRWQQGNVFSCSVMHEALHNHYTQKSLSLSPDYKDDDDK EPKSSDKTHTCPPCPAPELLGGPSVFLFPPKPKDTLMISRTPEVTCVVVDVSHEDPEVKFNWYVDGVEVHNAKTKPREEQYNSTYRVVSVLTVLHQDWLNGKEYKCKVSNKALPAPIEKTISKAKGQPREPQVCTLPPSRDELTKNQVSLWCLVKGFYPSDIAVEWESNGQPENNYKTTPPVLDSDGSFFLYSKLTVDKSRWQQGNVFSCSVMHEALHNRYTQKSLSLSP light: DIVMTQSPLSLPVTPGEPASISCRSSQSLVHSNRNTYLHWYQQKPGQAPRLLIYKVSNRFSGVPDRFSGSGSGTDFTLKISRVEAEDVGVYYCGQGTQVPYTFGQGTKLEIKRTVAAPSVFIFPPSDEQLKSGTASVVCLLNNFYPREAKVQWKVDNALQSGNSQESVTEQDSKDSTYSLSSTLTLSKADYEKHKVYACEVTHQGLSSPVTKSFNRGEC	0.59

Molecular target: T2, Human CD137 ECD (human)
T2 construct: also called 4-1BB
T2 sequence (chain, as listed by the source limits assumed): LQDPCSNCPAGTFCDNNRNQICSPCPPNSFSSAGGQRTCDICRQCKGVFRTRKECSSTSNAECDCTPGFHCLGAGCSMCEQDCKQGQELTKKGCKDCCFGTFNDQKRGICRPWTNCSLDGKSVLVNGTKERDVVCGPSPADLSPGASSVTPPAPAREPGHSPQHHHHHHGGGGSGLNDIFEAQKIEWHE
Assay: SPR, vs parent H183/L072

Binder	fold change of affinity [fold]
dBBDu183H P61V / dBBDu072L (antibody, name in Kabat numbering, V domains shown, as m1, one VH change) VH: QVQLVESGGGLVQPGRSLRLSCAASGFTFSNAWMHWVRQAPGKGLEWVAQIKDKGNAYAAYYAVSVKGRFTISRDDSKNSIYLQMNSLKTEDTAVYYCHYVHYASASTVLPAFGVDAWGQGTTVTVSS VL: DIVMTQSPLSLPVTPGEPASISCQASQELVHMNRNTYLHWYQQKPGQAPRLLIYKVSNRFPGVPDRFSGSGSGTDFTLKISRVEAEDVGVYYCAQGTSVPFTFGQGTKLEIK	0.6
dBBDu183H A100Q / dBBDu072L (antibody, name in Kabat numbering, V domains shown, as m1, one VH change) VH: QVQLVESGGGLVQPGRSLRLSCAASGFTFSNAWMHWVRQAPGKGLEWVAQIKDKGNAYAAYYAPSVKGRFTISRDDSKNSIYLQMNSLKTEDTAVYYCHYVHYASQSTVLPAFGVDAWGQGTTVTVSS VL: DIVMTQSPLSLPVTPGEPASISCQASQELVHMNRNTYLHWYQQKPGQAPRLLIYKVSNRFPGVPDRFSGSGSGTDFTLKISRVEAEDVGVYYCAQGTSVPFTFGQGTKLEIK	0.6
dBBDu183H A98S / dBBDu072L (antibody, name in Kabat numbering, V domains shown, as m1, one VH change) VH: QVQLVESGGGLVQPGRSLRLSCAASGFTFSNAWMHWVRQAPGKGLEWVAQIKDKGNAYAAYYAPSVKGRFTISRDDSKNSIYLQMNSLKTEDTAVYYCHYVHYSSASTVLPAFGVDAWGQGTTVTVSS VL: DIVMTQSPLSLPVTPGEPASISCQASQELVHMNRNTYLHWYQQKPGQAPRLLIYKVSNRFPGVPDRFSGSGSGTDFTLKISRVEAEDVGVYYCAQGTSVPFTFGQGTKLEIK	0.3
dBBDu183H A100G / dBBDu072L (antibody, name in Kabat numbering, V domains shown, as m1, one VH change) VH: QVQLVESGGGLVQPGRSLRLSCAASGFTFSNAWMHWVRQAPGKGLEWVAQIKDKGNAYAAYYAPSVKGRFTISRDDSKNSIYLQMNSLKTEDTAVYYCHYVHYASGSTVLPAFGVDAWGQGTTVTVSS VL: DIVMTQSPLSLPVTPGEPASISCQASQELVHMNRNTYLHWYQQKPGQAPRLLIYKVSNRFPGVPDRFSGSGSGTDFTLKISRVEAEDVGVYYCAQGTSVPFTFGQGTKLEIK	0.7
dBBDu183H A100N / dBBDu072L (antibody, name in Kabat numbering, V domains shown, as m1, one VH change) VH: QVQLVESGGGLVQPGRSLRLSCAASGFTFSNAWMHWVRQAPGKGLEWVAQIKDKGNAYAAYYAPSVKGRFTISRDDSKNSIYLQMNSLKTEDTAVYYCHYVHYASNSTVLPAFGVDAWGQGTTVTVSS VL: DIVMTQSPLSLPVTPGEPASISCQASQELVHMNRNTYLHWYQQKPGQAPRLLIYKVSNRFPGVPDRFSGSGSGTDFTLKISRVEAEDVGVYYCAQGTSVPFTFGQGTKLEIK	0.4
dBBDu183H A100E / dBBDu072L (antibody, name in Kabat numbering, V domains shown, as m1, one VH change) VH: QVQLVESGGGLVQPGRSLRLSCAASGFTFSNAWMHWVRQAPGKGLEWVAQIKDKGNAYAAYYAPSVKGRFTISRDDSKNSIYLQMNSLKTEDTAVYYCHYVHYASESTVLPAFGVDAWGQGTTVTVSS VL: DIVMTQSPLSLPVTPGEPASISCQASQELVHMNRNTYLHWYQQKPGQAPRLLIYKVSNRFPGVPDRFSGSGSGTDFTLKISRVEAEDVGVYYCAQGTSVPFTFGQGTKLEIK	0.5
dBBDu183H A100K / dBBDu072L (antibody, name in Kabat numbering, V domains shown, as m1, one VH change) VH: QVQLVESGGGLVQPGRSLRLSCAASGFTFSNAWMHWVRQAPGKGLEWVAQIKDKGNAYAAYYAPSVKGRFTISRDDSKNSIYLQMNSLKTEDTAVYYCHYVHYASKSTVLPAFGVDAWGQGTTVTVSS VL: DIVMTQSPLSLPVTPGEPASISCQASQELVHMNRNTYLHWYQQKPGQAPRLLIYKVSNRFPGVPDRFSGSGSGTDFTLKISRVEAEDVGVYYCAQGTSVPFTFGQGTKLEIK	1.1
dBBDu183H A98E / dBBDu072L (antibody, name in Kabat numbering, V domains shown, as m1, one VH change) VH: QVQLVESGGGLVQPGRSLRLSCAASGFTFSNAWMHWVRQAPGKGLEWVAQIKDKGNAYAAYYAPSVKGRFTISRDDSKNSIYLQMNSLKTEDTAVYYCHYVHYESASTVLPAFGVDAWGQGTTVTVSS VL: DIVMTQSPLSLPVTPGEPASISCQASQELVHMNRNTYLHWYQQKPGQAPRLLIYKVSNRFPGVPDRFSGSGSGTDFTLKISRVEAEDVGVYYCAQGTSVPFTFGQGTKLEIK	0.3
